Measurements as given in US20060111296A1 (DYAX, published 2006).

Molecular target: T1, plasmin (human, UniProt P00747 97-810, limits assumed)
T1 construct: Active plasmin is a two-chain, disulfide-linked form of plasminogen; also called human plasmin
Experiment: inhibition constant for human plasmin; method not described

T1 sequence (P00747 97-810 limits assumed): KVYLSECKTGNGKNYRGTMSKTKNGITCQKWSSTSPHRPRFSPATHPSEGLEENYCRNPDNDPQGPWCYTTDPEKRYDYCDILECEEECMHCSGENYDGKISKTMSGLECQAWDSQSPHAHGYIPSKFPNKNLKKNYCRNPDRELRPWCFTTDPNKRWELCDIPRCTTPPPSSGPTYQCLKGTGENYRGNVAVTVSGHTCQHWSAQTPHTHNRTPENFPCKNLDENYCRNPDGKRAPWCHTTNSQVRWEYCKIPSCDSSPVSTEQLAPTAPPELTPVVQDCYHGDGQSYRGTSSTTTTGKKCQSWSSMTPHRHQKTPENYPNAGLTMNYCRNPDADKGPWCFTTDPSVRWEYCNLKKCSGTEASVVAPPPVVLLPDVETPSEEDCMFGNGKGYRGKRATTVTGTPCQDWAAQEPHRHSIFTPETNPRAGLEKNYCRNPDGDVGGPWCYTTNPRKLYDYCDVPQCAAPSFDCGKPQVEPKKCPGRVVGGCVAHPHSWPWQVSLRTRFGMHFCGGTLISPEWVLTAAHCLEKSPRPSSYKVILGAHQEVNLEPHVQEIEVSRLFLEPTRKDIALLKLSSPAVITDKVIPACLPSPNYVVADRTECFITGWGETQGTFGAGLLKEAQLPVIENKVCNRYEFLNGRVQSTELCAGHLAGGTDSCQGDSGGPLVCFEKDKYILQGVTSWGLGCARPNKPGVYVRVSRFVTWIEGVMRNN

B1: DX-1000 (designed binder)
chain: MHSFCAFKAETGPCRARFDRWFFNIFTRQCEEFIYGGCEGNQNRFESLEECKKMCTRD
notes: Engineered Kunitz domain on the human LACI-K1 framework; also called DX-1000 (unmodified)
A Ki of 0.088 nM was found for B1 in this work.
